Experimental data as given in paper PMC4980223 (Immunology and cell biology, 2016).

Target: the molecule itself
Test: SEC

B1: recombinant, soluble SRCR trimer (HIS6-SRCR, MARCO residues 400-520) (domain or fragment, human, UniProt Q9UEW3 400-520, looked up)
chain: GVKGSSGEQGVKGEKGERGENSVSVRIVGSSNRGRAEVYYSGTWGTICDDEWQNSDAIVFCRMLGYSKGRALYKVGAGTGQIWLDNVQCRGTESTLWSCTKNSWGHHDCSHEEDAGVECSV
  stoichiometry N: 3
